Reference: PMC12159149

Target: geCHO.sE2.7 (secreted HCV E2 ectodomain produced in glycoengineered CHO line 7) (hepatitis C virus, genotype 1a (H77C))
Test: ELISA

Substance: CD81 large extracellular loop (LEL)-Fc fusion
- OD at 450 nm at the highest concentration of CD81-LEL-Fc (2.8 μM): 0.4 OD
